# Assay results taken from article doi:10.1101/2025.01.30.635804, “Emergence of specific binding and catalysis from a designed generalist binding protein” (bioRxiv, 2025).
# Changes are numbered by the printed parent chain. In names and notes the source's numbering stands.
# B1: tKSI: Natural enzyme; ref 68 (protein, UniProt P00947 1-125, looked up)
# Steroid Delta-isomerase: MNTPEHMTAVVQRYVAALNAGDLDGIVALFADDATVEDPVGSEPRSGTAAIREFYANSLKLPLAVELTQEVRAVANEAAFAFTVSFEYQGRKTVVAPIDHFRFNGAGKVVSMRALFGEKNIHAGA
# B2: D38N tKSI: Single mutation of tKSI; ref 68 (protein, UniProt P00947 1-125, looked up, variant D38N)
# Steroid Delta-isomerase: B1 Steroid Delta-isomerase with D38N
# Assay: Kinetic parameters of reported proteins catalyzing the Kemp elimination (literature)
# Format: biochemical
# Settings: literature kcat/KM (M-1s-1) divided by total number of amino acids
# Description: Extended Data Table 4 çKinetic parameters of reported proteins catalyzing the Kemp elimination of 5-nitrobenzisoxazole with base-mediated mechanism.
# Protein Description kcat/KM, kcat, KM, Amino Ref
# AlleyCat Single mutation of 5.8 ND ND 0.08 64
# Lysozyme Double mutation of 1.8 ND ND 0.01 138 […]
molecule,measurement,value
B1,Amino acid efficiency,0.02
B2,Amino acid efficiency,140
